From PMC1636348

Biological target: DNA polymerase mu (Polμ) wild type (Homo sapiens, UniProt Q9NP87 1-494)
Assay: EMSA

DNA polymerase mu (Polμ) wild type, sequence (Q9NP87 whole entry): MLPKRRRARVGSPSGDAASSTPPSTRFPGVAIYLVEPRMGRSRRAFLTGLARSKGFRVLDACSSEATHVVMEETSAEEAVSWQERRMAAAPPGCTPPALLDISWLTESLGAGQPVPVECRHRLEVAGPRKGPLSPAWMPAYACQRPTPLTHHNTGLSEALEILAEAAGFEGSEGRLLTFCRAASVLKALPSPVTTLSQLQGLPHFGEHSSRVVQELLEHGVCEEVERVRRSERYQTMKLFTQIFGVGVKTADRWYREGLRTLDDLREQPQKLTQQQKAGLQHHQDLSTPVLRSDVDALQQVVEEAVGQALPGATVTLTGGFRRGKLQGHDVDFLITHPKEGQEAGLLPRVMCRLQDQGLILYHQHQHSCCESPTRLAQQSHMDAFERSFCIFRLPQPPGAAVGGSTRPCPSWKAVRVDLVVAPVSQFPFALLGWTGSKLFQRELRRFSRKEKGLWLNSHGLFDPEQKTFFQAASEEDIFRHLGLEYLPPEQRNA

B1: Blunt (P19+T19) (dsDNA)
DNA 1: GATCACAGTGAGTACAATA
DNA 2: TATTGTACTCACTGTGATC
  binding result: no binding
